Among the data in patent publication US20190376053A1 are Kd and Ratio values, retold here.

The target in assay [1] is collagen fibril (porcine skin fiber, Nippi, Inc) (porcine). Kind of assay: collagen fibril binding assay (spin column, SDS-PAGE of the unbound protein, Scatchard plot).
Assay [2] has as its target mini-collagen peptide H-Gly-Pro-Arg-Gly-(Pro-Hyp-Gly)12-NH2. The experiment in a line: SPR (Biacore), peptide immobilized, equilibrium fit, apparent KD.
Assay [3] shares this target. The experiment in a line: SPR (Biacore); ratio of KD, ColHS2bS3 = 1.00. For orientation: Surface plasmon resonance follows binding to a sensor surface in real time, without labels.

In turn, “collagen-binding domain s3a derived from Clostridium histolyticum class I collagenase ColG (from UniProt Q9X721 886-1003)” came in with a Kd in assay [1] of 100 µM. Take “collagen-binding domain s3b derived from Clostridium histolyticum class I collagenase ColG (from UniProt Q9X721 1003-1118)”: the Kd in assay [2] amounted to 45.4 µM. The Ratio in assay [3] is 0.102.

As to “tandem collagen-binding domain (s3a-s3b) derived from Clostridium histolyticum class I collagenase ColG (from UniProt Q9X721 886-1118)”, the Kd in assay [2] is 44.6 µM. Also, the Ratio in assay [3] is 0.1.
